The target of the test is OleTPRN, CYP152 decarboxylase from Rothia nassimurium forming terminal (poly-unsaturated) olefins, wild type (Rothia nassimurium). The test can be described thus: SEC. In general terms: SEC sorts molecules by how far they enter the pores of the column.

Take “OleTPRN, CYP152 decarboxylase from Rothia nassimurium forming terminal (poly-unsaturated) olefins, wild type (enzyme)”: the stoichiometry N (in general, a count of units in the complex or per binding partner) was determined as 2.

These data come from PMC10235961.
